{
  "source": "the supplement of paper PMC11316812",
  "key": {"[1]": {"test_system": "hTERT-HMEC", "assay": "percentage of EdU-negative (G0-arrested) nuclei per well, 72 h; higher = more G0 arrest", "settings": "reference: sequence is the full UniProt precursor, the tested protein was the secreted form or ectodomain"}, "[2]": {"test_system": "MCF7", "assay": "percentage of EdU-negative (G0-arrested) nuclei per well, 72 h; higher = more G0 arrest", "settings": "reference: sequence is the full UniProt precursor, the tested protein was the secreted form or ectodomain"}, "[3]": {"settings": "protein concentration 0.0225 µM"}, "[4]": {"settings": "protein concentration 0.03125 µM"}, "[5]": {"settings": "protein concentration 0.3125 µM"}, "[6]": {"settings": "protein concentration 0.01225 µM"}, "[7]": {"settings": "protein concentration 0.1225 µM"}, "[8]": {"settings": "protein concentration 0.01775 µM"}, "[9]": {"settings": "protein concentration 0.1775 µM"}},
  "note": "± gives the standard deviation of the averaged measurements.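 Further: secreted proteins added to cultured cells, EdU pulse at the end, nuclei found by Hoechst imaging, EdU status from nuclear versus surrounding ring intensity ratio, PBS as neutral control.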",
  "data": [
    {"sequence": "MILIPRMLLVLFLLLPILSSAKAQVNPAICRYPLGMSGGQIPDEDITASSQWSESTAAKYGRLDSEEGDGAWCPEIPVEPDDLKEFLQIDLHTLHFITLVGTQGRHAGGHGIEFAPMYKINYSRDGTRWISWRNRHGKQVLDGNSNPYDIFLKDLEPPIVARFVRFIPVTDHSMNVCMRVELYGCVWLDGLVSYNAPAGQQFVLPGGSIIYLNDSVYDGAVGYSMTEGLGQLTDGVSGLDDFTQTHEYHVWPGYDYVGWRNESATNGYIEIMFEFDRIRNFTTMKVHCNNMFAKGVKIFKEVQCYFRSEASEWEPNAISFPLVLDDVNPSARFVTVPLHHRMASAIKCQYHFADTWMMFSEITFQSDAAMYNNSEALPTSPMAPTTYDPMLKVDDSNTRILIGCLVAIIFILLAIIVIILWRQFWQKMLEKASRRMLDDEMTVSLSLPSDSSMFNNNRSSSPSEQGSNSTYDRIFPLRPDYQEPSRLIRKLPEFAPGEEESGCSGVVKPVQPSGPEGVPHYAEADIVNLQGVTGGNTYSVPAVTMDLLSGKDVAVEEFPRKLLTFKEKLGEGQFGEVHLCEVEGMEKFKDKDFALDVSANQPVLVAVKMLRADANKNARNDFLKEIKIMSRLKDPNIIHLLAVCITDDPLCMITEYMENGDLNQFLSRHEPPNSSSSDVRTVSYTNLKFMATQIASGMKYLSSLNFVHRDLATRNCLVGKNYTIKIADFGMSRNLYSGDYYRIQGRAVLPIRWMSWESILLGKFTTASDVWAFGVTLWETFTFCQEQPYSQLSDEQVIENTGEFFRDQGRQTYLPQPAICPDSVYKLMLSCWRRDTKNRPSFQEIHLLLLQQGDE", "values": [
      {"measurement": "percentage of EdU-negative", "setting": "[1]; [3]", "value": "4.96 ± 0.44", "unit": "%"},
      {"measurement": "percentage of EdU-negative", "setting": "[1]; protein concentration 0.225 µM", "value": "5.43 ± 1.3", "unit": "%"},
      {"measurement": "percentage of EdU-negative", "setting": "[2]; [3]", "value": "26.1 ± 1", "unit": "%"},
      {"measurement": "percentage of EdU-negative", "setting": "[2]; protein concentration 0.225 µM", "value": "25.9 ± 1.3", "unit": "%"}
    ]},
    {"sequence": "MIPAKDMAKVMIVMLAICFLTKSDGKSVKKRSVSEIQLMHNLGKHLNSMERVEWLRKKLQDVHNFVALGAPLAPRDAGSQRPRKKEDNVLVESHEKSLGEADKADVNVLTKAKSQ", "values": [
      {"measurement": "percentage of EdU-negative", "setting": "[1]; [4]", "value": "4.88 ± 0.23", "unit": "%"},
      {"measurement": "percentage of EdU-negative", "setting": "[1]; [5]", "value": "6.37 ± 2", "unit": "%"},
      {"measurement": "percentage of EdU-negative", "setting": "[2]; [4]", "value": "25.8 ± 0.95", "unit": "%"},
      {"measurement": "percentage of EdU-negative", "setting": "[2]; [5]", "value": "25 ± 0.47", "unit": "%"}
    ]},
    {"sequence": "MIPFLPMFSLLLLLIVNPINANNHYDKILAHSRIRGRDQGPNVCALQQILGTKKKYFSTCKNWYKKSICGQKTTVLYECCPGYMRMEGMKGCPAVLPIDHVYGTLGIVGATTTQRYSDASKLREEIEGKGSFTYFAPSNEAWDNLDSDIRRGLESNVNVELLNALHSHMINKRMLTKDLKNGMIIPSMYNNLGLFINHYPNGVVTVNCARIIHGNQIATNGVVHVIDRVLTQIGTSIQDFIEAEDDLSSFRAAAITSDILEALGRDGHFTLFAPTNEAFEKLPRGVLERIMGDKVASEALMKYHILNTLQCSESIMGGAVFETLEGNTIEIGCDGDSITVNGIKMVNKKDIVTNNGVIHLIDQVLIPDSAKQVIELAGKQQTTFTDLVAQLGLASALRPDGEYTLLAPVNNAFSDDTLSMDQRLLKLILQNHILKVKVGLNELYNGQILETIGGKQLRVFVYRTAVCIENSCMEKGSKQGRNGAIHIFREIIKPAEKSLHEKLKQDKRFSTFLSLLEAADLKELLTQPGDWTLFVPTNDAFKGMTSEEKEILIRDKNALQNIILYHLTPGVFIGKGFEPGVTNILKTTQGSKIFLKEVNDTLLVNELKSKESDIMTTNGVIHVVDKLLYPADTPVGNDQLLEILNKLIKYIQIKFVRGSTFKEIPVTVYTTKIITKVVEPKIKVIEGSLQPIIKTEGPTLTKVKIEGEPEFRLIKEGETITEVIHGEPIIKKYTKIIDGVPVEITEKETREERIITGPEIKYTRISTGGGETEETLKKLLQEEVTKVTKFIEGGDGHLFEDEEIKRLLQGDTPVRKLQANKKVQGSRRRLREGRSQ", "values": [
      {"measurement": "percentage of EdU-negative", "setting": "[1]; [6]", "value": "5.41 ± 1.4", "unit": "%"},
      {"measurement": "percentage of EdU-negative", "setting": "[1]; [7]", "value": "5 ± 1.3", "unit": "%"},
      {"measurement": "percentage of EdU-negative", "setting": "[2]; [6]", "value": "25.5 ± 0.97", "unit": "%"},
      {"measurement": "percentage of EdU-negative", "setting": "[2]; [7]", "value": "27.4 ± 1.6", "unit": "%"}
    ]},
    {"sequence": "MIPGGLSEAKPATPEIQEIVDKVKPQLEEKTNETYGKLEAVQYKTQVVAGTNYYIKVRAGDNKYMHLKVFKSLPGQNEDLVLTGYQVDKNKDDELTGF", "values": [
      {"measurement": "percentage of EdU-negative", "setting": "[1]; [4]", "value": "5.99 ± 0.58", "unit": "%"},
      {"measurement": "percentage of EdU-negative", "setting": "[1]; [5]", "value": "5.5 ± 0.67", "unit": "%"},
      {"measurement": "percentage of EdU-negative", "setting": "[2]; [4]", "value": "26.6 ± 0.69", "unit": "%"},
      {"measurement": "percentage of EdU-negative", "setting": "[2]; [5]", "value": "23.6 ± 2.5", "unit": "%"}
    ]},
    {"sequence": "MIPLLLAALLCVPAGALTCYGDSGQPVDWFVVYKLPALRGSGEAAQRGLQYKYLDESSGGWRDGRALINSPEGAVGRSLQPLYRSNTSQLAFLLYNDQPPQPSKAQDSSMRGHTKGVLLLDHDGGFWLVHSVPNFPPPASSAAYSWPHSACTYGQTLLCVSFPFAQFSKMGKQLTYTYPWVYNYQLEGIFAQEFPDLENVVKGHHVSQEPWNSSITLTSQAGAVFQSFAKFSKFGDDLYSGWLAAALGTNLQVQFWHKTVGILPSNCSDIWQVLNVNQIAFPGPAGPSFNSTEDHSKWCVSPKGPWTCVGDMNRNQGEEQRGGGTLCAQLPALWKAFQPLVKNYQPCNGMARKPSRAYKI", "values": [
      {"measurement": "percentage of EdU-negative", "setting": "[1]; [3]", "value": "5.36 ± 0.56", "unit": "%"},
      {"measurement": "percentage of EdU-negative", "setting": "[1]; protein concentration 0.225 µM", "value": "6.55 ± 0.55", "unit": "%"},
      {"measurement": "percentage of EdU-negative", "setting": "[2]; [3]", "value": "24.5 ± 0.64", "unit": "%"},
      {"measurement": "percentage of EdU-negative", "setting": "[2]; protein concentration 0.225 µM", "value": "26.5 ± 3", "unit": "%"}
    ]},
    {"sequence": "MIRAAPPPLFLLLLLLLLLVSWASRGEAAPDQDEIQRLPGLAKQPSFRQYSGYLKGSGSKHLHYWFVESQKDPENSPVVLWLNGGPGCSSLDGLLTEHGPFLVQPDGVTLEYNPYSWNLIANVLYLESPAGVGFSYSDDKFYATNDTEVAQSNFEALQDFFRLFPEYKNNKLFLTGESYAGIYIPTLAVLVMQDPSMNLQGLAVGNGLSSYEQNDNSLVYFAYYHGLLGNRLWSSLQTHCCSQNKCNFYDNKDLECVTNLQEVARIVGNSGLNIYNLYAPCAGGVPSHFRYEKDTVVVQDLGNIFTRLPLKRMWHQALLRSGDKVRMDPPCTNTTAASTYLNNPYVRKALNIPEQLPQWDMCNFLVNLQYRRLYRSMNSQYLKLLSSQKYQILLYNGDVDMACNFMGDEWFVDSLNQKMEVQRRPWLVKYGDSGEQIAGFVKEFSHIAFLTIKGAGHMVPTDKPLAAFTMFSRFLNKQPY", "values": [
      {"measurement": "percentage of EdU-negative", "setting": "[1]; [3]", "value": "5.3 ± 0.043", "unit": "%"},
      {"measurement": "percentage of EdU-negative", "setting": "[1]; protein concentration 0.225 µM", "value": "5.82 ± 0.15", "unit": "%"},
      {"measurement": "percentage of EdU-negative", "setting": "[2]; [3]", "value": "25.2 ± 3.7", "unit": "%"},
      {"measurement": "percentage of EdU-negative", "setting": "[2]; protein concentration 0.225 µM", "value": "25.1 ± 0.47", "unit": "%"}
    ]},
    {"sequence": "MIRTLLLSTLVAGALSCGDPTYPPYVTRVVGGEEARPNSWPWQVSLQYSSNGKWYHTCGGSLIANSWVLTAAHCISSSRTYRVGLGRHNLYVAESGSLAVSVSKIVVHKDWNSNQISKGNDIALLKLANPVSLTDKIQLACLPPAGTILPNNYPCYVTGWGRLQTNGAVPDVLQQGRLLVVDYATCSSSAWWGSSVKTSMICAGGDGVISSCNGDSGGPLNCQASDGRWQVHGIVSFGSRLGCNYYHKPSVFTRVSNYIDWINSVIANN", "values": [
      {"measurement": "percentage of EdU-negative", "setting": "[1]; [8]", "value": "6.83 ± 1.7", "unit": "%"},
      {"measurement": "percentage of EdU-negative", "setting": "[1]; [9]", "value": "24.7 ± 3.9", "unit": "%"},
      {"measurement": "percentage of EdU-negative", "setting": "[2]; [8]", "value": "23.79 ± 0.23", "unit": "%"},
      {"measurement": "percentage of EdU-negative", "setting": "[2]; [9]", "value": "29.6 ± 2.2", "unit": "%"}
    ]}
  ]
}
